Assay results published in patent publication US20210096139A1.

Target: human CSF tau (human) (UniProt P10636)
Assay: IP of tau from human CSF on antibody beads; recovery assessed by N-terminus tau ELISA (HJ8.5 capture, HJ8.7-biotin detection); value is the average over Tau12, HJ8.5 and HJ8.7

Chain of UniProt P10636 (P10636 2-758 limits assumed): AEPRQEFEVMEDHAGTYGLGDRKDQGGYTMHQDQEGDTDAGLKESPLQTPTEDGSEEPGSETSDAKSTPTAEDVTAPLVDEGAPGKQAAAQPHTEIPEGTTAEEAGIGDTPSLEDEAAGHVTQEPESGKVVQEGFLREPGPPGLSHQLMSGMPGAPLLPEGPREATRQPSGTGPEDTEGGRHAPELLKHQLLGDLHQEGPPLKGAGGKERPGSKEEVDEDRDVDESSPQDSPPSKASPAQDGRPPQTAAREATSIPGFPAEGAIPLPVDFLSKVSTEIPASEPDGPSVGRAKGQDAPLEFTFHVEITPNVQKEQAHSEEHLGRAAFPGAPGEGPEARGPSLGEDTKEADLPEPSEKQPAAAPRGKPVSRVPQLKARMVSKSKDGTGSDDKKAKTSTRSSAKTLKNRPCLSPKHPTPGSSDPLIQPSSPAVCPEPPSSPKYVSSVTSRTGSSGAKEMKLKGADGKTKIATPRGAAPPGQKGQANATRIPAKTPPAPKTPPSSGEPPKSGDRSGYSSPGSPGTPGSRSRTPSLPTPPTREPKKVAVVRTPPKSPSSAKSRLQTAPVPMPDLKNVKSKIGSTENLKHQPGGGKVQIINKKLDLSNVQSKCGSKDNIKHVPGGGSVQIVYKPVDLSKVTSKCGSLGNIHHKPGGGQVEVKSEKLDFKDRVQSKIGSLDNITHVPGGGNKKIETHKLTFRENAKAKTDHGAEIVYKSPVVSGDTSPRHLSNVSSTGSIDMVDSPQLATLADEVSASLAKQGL

| Substance | immunoprecipitation efficiency [%] |
| --- | --- |
| HJ8.7 (antibody) | 99.3 |
| Tau12 (antibody) | 99.3 |
